B1: TPR t1 (parent)
chain: GACCAAUCUGCCCUCAGAGCUCGAGAACAUCUUCGGAUGCAGAGGAGGCAGGCUUCGGUGGCGCGAUAGCGCCAACGUCCUCAACCUCCAAUGCAUCCCACCACAUGAUGAUGCCUGAAGAGCCUUGGUUUUUUG

Variants of: B1
Assay: polymerase ribozyme fitness, log enrichment relative to wild type (log ratio); higher = more active; in vitro selection for triplet polymerase activity
Summary of the method: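 PCR was used to build mutant libraries for each subunit of a heterodimeric triplet polymerase ribozyme, which were then transcribed. A single in vitro selection round, in triplicate, used a frozen incubation at −7 °C and recovered extended constructs by gel excision, streptavidin beads and RT-PCR. Fitness is the logarithm of genotype enrichment relative to wild-type enrichment, averaged over replicates with inverse-variance weights. The logarithm is base 2, and after Illumina sequencing only genotypes with ≥10 input reads and ≥1 read per output were kept.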

Variant | polymerase ribozyme fitness (log ratio)
GACCAAUCUGCCCUCAGAGCUCGAGAAUAUCUUCGCAUGCAGAGGAGGCAGGCUUCGGUGGCGCGAUAGCGCCAACGUGCUCAACCUCCAAUGCAUCCCACCACAUGAUGUUGCCUGAAGAGCCUUGGUUUUUUG | -6.86
GACCAAUCUGCCCUCAGAGCUCGAGAAUAUCUUCGGAUGCAGAGGAGGCAGGCUUCGGUGUCGCGAUAGCGCCAACGUCCUCAACCUCCAACGCAUCCCACCACAUGAUGAUGCCUGAAGAGCCUUGGUUUUUUG | -2.53
GACCAAUCUGCCCUCAGAGCUCGAGAAUAUCUUCGGAUGCAGAGGAGGCAGUCUUCGGUGGCGCGAUAGCGCCAACGUCCUCAACCUCCAAUGCAUCCCAUCACAUGAUGAUGCCUGAAGAGCCUUGGUUUUUUG | -4.04
GACCAAUCUGCCCUCAGAGCUCGAGAAUAUCUUCGGAUGCAGAGGAGGCAGGCUUCGGUGGCGCGAUAGCGCCAACGUCCUCAACCUCCAAUUCAUCCCACCACAUGAUGACGCCUGAAGAGCCUUGGUUUUUUG | -1.92
GACCAAUCUGCCCUCAGAGCUCGAGAAUAUCUUCGGAUUCAGAGGAGGCAGGCUUCGGUGGCGCGAUAGCCCCAACGUCCUCAACCUCCAAUGCAUCCUACCACAUGAUGAUGCCUGAAAAGCCUUGGUUUUUUG | -4.64
GACCAAUCUGCCCUCAGAGCUCGAGAAUAUCUUCGGAUGCAGAGGAGGCAGGCUCCGGCGGCGCGAUAGCGCCAACGUCCUCAACCUCCAAUGCAUCCCACCACAUGAUGAUGCCUGAAGAGCCUUGGUUUUUUG | -3.17
GACCAAUCUGCCCUCAGAGCUCGAGAAUAUCUUCGGAUGCAGAGGAGGCAGGCUUCGCUGCCGCGAUAGCGCCAACGUCCUCAACCUCCAAUGCAUCCCACCACAUGAUGAUGCCUGAAGAGCCUUGGUUUUUUG | -2.78
GACCAAUCUGCCCUCAGAGCUCGAGAAUAUCUUCGGAUGCAGAGGAGGCAGGCUUCGGUGGCGCGAUAGCUCCAACGUCCUCUACGUCCAAUGCAUCCCACCACAUGAUGAUGCCUGAAGAGGCUUGGUUUUUUG | -2.39
GACCAAUCUGCCCUCAGAGCUCGAGAAUAUCUUCGGAUGCAGAGGAGGCAGGCUUCGGUGGCGCGAUAGCGCCAACGUCCUCAACCUCCAAUGCAUCCCACCACAUGAUGAAGCCUGAAGAGCCUUGGUUUUUUG | -1.56
GACCAAUCUGCCCUCAGAGCUCGAGAAUAUCUUCGGAUGCAGAGGAGGCAGGCUUCGGUGGCUCGAUAGCGCCAACGUCCUCAACCUCCAAUGCAUCCCACCACAUGAUGAUGCCUGAAGAGCCUUGGUUUUUUG | -3.07
GACCAAUCUGCCCUCAGAGCUCGAGAAUAUCUUCGGAUGCAGAGGAGGCAGGCUUCGGUGGCACGAUAGCGCCAACGUCCUCAACCUCCAAUGCAUCCCACCACAUGAUGAUGCCUGAAGAGCCUUGGUUUUUUG | -3.62
GACCAAUCUGCCCUCAGAGCUCGAGAAUAUCUUCGGAUGCAGAGGAGGCAGGCUUCGCUGGCGCGAUAGCGCCAACGUCCUCAACCUCCAAUGCAUCCCACCACAUGAUGAUCCCUGAAGAGCCUUGGUUUCUUG | -4.51
GACCAAUCUGCCCUCAGAGCUCGAGAAUAUCUUCGGAUGCAGAGGAGGCAGGCUUCGGUGGCACGAUAGCGCCAACGUCCUCAACCUUCAAUGCAUCCCACCACAUGAUGAUGCCUGAAGAGCCUUGGUUUUUUG | -3.69
GACCAAUCUGCCCUCAGAGCUCGAGAAUAUCUUCGGAUGCAGAGGAGGCAGGCUUCGGGGGCGCGAUAGCGCCAACGUCCUCAACGUCUAAUGCAUCCCACCACAUGAUGAUGCCUGAAGAGCCUUGGUUUUUUG | -4.05
GACCAAUCUGCCCUCAGAGCUCGAGAAUAUCUUCGGAUACAGAGGAGGCAGGCUUCGGUGUCGCGAUAGCGCCAACGUCCUCAACCUCCAAUGCAUCCCACCACAUGAUGAUGCCUGAAGAGCCUUGGUUUUUUG | -2.23
GACCAAUCUGCCCUCAGAGCUCGAGAAUAUCUUCGGAUGCAGAGGAGGCAGGCUUCGAUGGCGCGAUAGCGCCAACGUCCUCAACCUCCAAUGCAUCCCACCACAUGAUGAUGCCUGAAGAGCCUUGGUUUUUUG | -2.03
GACCAAUCUGCCCUCAGAGCUCGAGAAUAUCUUCGGAUGCAGAGGAAGCAGGCUUCGGUCGCGCGAUAGCGCCAACGUCCUCAACCUCCAAUGCAUCCCACCACAUGAUGAUGCCUGAAGAGCCUUGGUUUUUUG | -3.22
GACCAAUCUGCCCUCAGAGCUCGAGAAUAUCUUCGGAUGCAGAGGAGACAGGCUUCGGUGGCGCGAUAGCGCCAACGUCCUCAACCUCCAAUGCAUCCCACCACAUGAUGAUGCCUGAAGAGCCUUGGUUUUUUG | -3.13
GACCAAUCUGCCCUCAGAGCUCGAGAAUAUCUUCGGAUGCAGAGGAGUCAGGCUUCGGUGGCGCGAUAGCGCCAACGUCCUCAACCUCCAAUGCAUCCCACCACAUGAUGAUGCCUGAAGAGCCUUGGUUUUUUG | -2.79
GACCAAUCUGCCCUCAGAGCUCGAGAAUAUCUUCGGAUGCAUAGGAGGGAGGCUUCGGUGGCGCGAUAUCGCCAACGUCCUCAACCUCCAAUGCAUCCCACCACAUGAUGAUGCCUGAAGAGCCUGGGUAUUUUG | -6.32
GACCAAUCUGCCCUCAGAGCUCGAGAAUAUCUUCGGAUGCAGAGGAUGCAGGCUUCGGUGGCGCGAUAGCGCCAACGUCCUCAACCUCCAAUACAUCCCACCACAUGAUGAUGCCUGAAGAGCCUUGGUUUUUUG | -5.35
